Tests used:
[1] = target: soluble hMPV F ectodomain (1-489, NL/1/00, G294E) with C-terminal TEV site, Foldon, Xa site and 6xHis-tag, uncleaved (human metapneumovirus, strain NL/1/00 (A1 sublineage)); assay: SEC; HiLoad 16/600 Superdex 200 pg; 50 mM Na2HPO4 pH 8.0, 300 mM NaCl
[2] = target: soluble postfusion hMPV F (NL/1/00, A1 sublineage), furin-cleaved, fusion peptide residues 103-111 d (human metapneumovirus, strain NL/1/00 (A1 sublineage)); assay: as above

Substance | stoichiometry N [1] | stoichiometry N [2]
soluble hMPV F ectodomain (1-489, NL/1/00, G294E) with C-terminal TEV site, Foldon, Xa site and 6xHis-tag, uncleaved (domain or fragment) | 3 | 
soluble postfusion hMPV F (NL/1/00, A1 sublineage), furin-cleaved, fusion peptide residues 103-111 d (domain or fragment) |  | 3

— PMC5017722
